Measured values: US20250237651A1 (ASAHI KASEI, published 2025)

How the values were obtained:
[1] = molecular target: T1, Ribosomal protein L7/L12 of Neisseria meningitidis (in extracted sample solution of the bacteria) (Neisseria meningitidis, UniProt A1KRG5 1-123); assay: sandwich ELISA, capture NG3, HRP-labelled NG1, N. meningitidis extract
T1 construct: also called Neisseria meningitidis L7/L12
T1 sequence: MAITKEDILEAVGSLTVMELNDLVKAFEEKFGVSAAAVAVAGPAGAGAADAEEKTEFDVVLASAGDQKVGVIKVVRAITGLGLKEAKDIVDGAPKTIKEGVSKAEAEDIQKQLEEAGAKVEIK

[2] = molecular target: T2, Polypeptide 2 (part of Neisseria gonorrhoeae L7/L12 lacking amino acid residues 1 to 14) (Neisseria gonorrhoeae, UniProt B4RQW1 15-123); assay: ELISA, polypeptide solid-phased at 2 ug/mL, antibody 100 ng/ml; + = absorbance 450 nm 0.1 or greater
T2 construct: Purified as a tagged fusion protein

[3] = molecular target: T3, Polypeptide 3 (part of Neisseria gonorrhoeae L7/L12 lacking amino acid residues 1 to 63) (Neisseria gonorrhoeae, UniProt B4RQW1 64-123); assay: as above
T3 construct: Purified as a tagged fusion protein
T3 sequence: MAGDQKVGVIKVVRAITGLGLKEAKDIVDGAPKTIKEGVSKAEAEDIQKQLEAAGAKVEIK

[4] = molecular target: T4, Polypeptide 1 (all of the amino acid sequence of ribosomal protein L7/L12 of Neisseria gonorrhoeae) (Neisseria gonorrhoeae, UniProt B4RQW1 1-123); assay: as above
T4 construct: Expressed in E. coli and purified as a fusion protein through a vector-derived tag
T4 sequence: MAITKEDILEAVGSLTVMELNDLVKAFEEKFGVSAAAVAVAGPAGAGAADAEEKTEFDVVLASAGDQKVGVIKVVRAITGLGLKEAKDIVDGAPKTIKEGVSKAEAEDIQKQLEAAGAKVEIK

[5] = molecular target: T5, Ribosomal protein L7/L12 of Neisseria gonorrhoeae (in extracted sample solution of the bacteria) (Neisseria gonorrhoeae, UniProt B4RQW1 1-123); assay: sandwich ELISA, primary (capture) NG1, HRP-labelled secondary NG3, N. gonorrhoeae extract 1e6 cfu/mL; Absorbance difference A 1.0 or greater
T5 construct: also called Neisseria gonorrhoeae L7/L12; Neisseria gonorrhoeae-derived antigen
T5 sequence: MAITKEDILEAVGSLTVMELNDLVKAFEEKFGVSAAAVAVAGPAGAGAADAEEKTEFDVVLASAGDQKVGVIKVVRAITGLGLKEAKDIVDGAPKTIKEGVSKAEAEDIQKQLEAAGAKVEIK

[6] = molecular target: T6, Polypeptide 4 (part of Neisseria gonorrhoeae L7/L12 lacking amino acid residues 102 to 123) (Neisseria gonorrhoeae, UniProt A1KRG5 1-101); assay: ELISA, polypeptide solid-phased at 2 ug/mL, HRP-labeled anti-IgG
T6 construct: Purified as a tagged fusion protein
T6 sequence: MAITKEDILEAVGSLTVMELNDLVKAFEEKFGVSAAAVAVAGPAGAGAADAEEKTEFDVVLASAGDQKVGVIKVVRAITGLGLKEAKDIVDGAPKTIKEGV

[7] = molecular target: T7, Polypeptide 5 (all of the L7/L12 amino acid sequence of Neisseria meningitidis) (Neisseria meningitidis, UniProt A1KRG5 1-123); assay: as above
T7 construct: Differs from Neisseria gonorrhoeae L7/L12 only at residue 115 (glutamic acid instead of alanine); Purified as a tagged fusion protein
T7 sequence: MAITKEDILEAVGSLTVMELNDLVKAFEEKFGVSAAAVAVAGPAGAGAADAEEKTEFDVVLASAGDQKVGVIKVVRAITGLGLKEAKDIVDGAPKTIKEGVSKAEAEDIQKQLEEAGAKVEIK

B1: Antibody NG1 (antibody, V domains shown)
VH: EVQLQQSGAELVKPGASVKLSCTASGFNIKDTYIYWVKQRPEQGLEWIGRIDPANGHTKCDPKFQGKATITSDTSSNTAYLQLNSLTSEDTAVYYCSKGYFHYWGQGTTLTVSS
VL: DIQMTQSPSSLSASLGERVSLTCRASQEISGYLSWLQQKPDGTIKRLIYAASTLDSGVPKRFSGSRSGSDYSLTISSLESEDFADYYCQQYDSYPWTFGGGTKLEIK
notes: Mouse hybridoma monoclonal antibody raised against polypeptide 1; detected with an anti-IgG antibody; HRP-labelled or gold-colloid-labelled when used as detection antibody; also called Antibody species A
[1]
  binding result: no binding
[2]
  binding result: binds
[3]
  binding result: binds
[4]
  binding result: binds
[5]
  binding result: binds
[6]
  binding result: no binding
[7]
  binding result: no binding
